This is an account of results in patent US20240400715A1 (VIBRANT PHARMA, published 2024).

Assay [1] addresses T1, human CD3ε/δ (ACRO systems, CDD-H52W1) (human, UniProt P07766 23-126; P04234 22-105).
T1 construct: Bought protein; also called human CD3ϵ/CD3δ; human CD3 epsilon/delta antigen
The assay is described as follows: BLI, antibody captured, antigen in solution.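 Further: bispecific antibodies captured on AHIC biosensors to a 1.5 nm loading signal, in PBST with 0.02% detergent.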
Procedure: The bispecific antibodies were diluted to 5 ag/ml, and 1.5 nm protein was coupled to the surface of the AHIC sensor chip through 0.02% PBST.

In assay [2] the target is T2, human CD3 on Jurkat cells (human, UniProt P07766 23-207; P04234 22-171; P09693 23-182).
T2 construct: whole, on cells; CD3 complex as on Jurkat (Clone E6-1) cells; also called CD3 expressing cells (Jurkat)
Briefly: FACS, Jurkat cells.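 Further: flow cytometric binding of bispecific antibodies to Jurkat T cells, threefold serial dilutions incubated half an hour in the cold, EC50 taken from the fitted binding curve.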
Procedure: The binding of the bispecific antibodies was tested on the CA expressing human lung adenocarcinoma cell line (H1573) and the CD3 expressing immortalized T lymphocyte line (Jurkat). The steps are as follows: the cells were harvested, counted, and resuspended in FACS buffer (PBS containing 0.1% BSA) at 2×10⁶ cells/ml. 100 μl of cell suspension was incubated in a V-bottom 96-well plate at 4° C. with 3-fold serial dilutions of bispecific antibodies (20 μg/ml-0.009 μg/ml) for 30 minutes; washed twice with pre-cooled FACS buffer. […] GraphPadPrism was used to obtain the binding curve.

Where “and” joins values, the source holds several entries; their conditions need not be identical. Equal values may be shown once.

B1: 311 (TA6), configuration of FIG. 1X (bispecific antibody, IgG4)
heavy: EVQLVQSGAEVKKPGASVKVSCKASGYTFTNYYIHWVRQAPGQGLEWIGWIYPGDGNTKYNEKFKGRATLTADTSTSTAYLELSSLRSEDTAVYYCARDSYSNYYFDYWGQGTLVTVSSASTKGPSVFPLAPCSRSTSESTAALGCLVKDYFPEPVTVSWNSGALTSGVHTFPAVLQSSGLYSLSSVVTVPSSSLGTKTYTCNVDHKPSNTKVDKRVESKYGPPCPPCPAPEAAGGPSVFLFPPKPKDTLMISRTPEVTCVVVDVSQEDPEVQFNWYVDGVEVHNAKTKPREEQFNSTYRVVSVLTVLHQDWLNGKEYKCKVSNKGLPSSIEKTISKAKGQPREPQVYTLPPCQEEMTKNQVSLWCLVKGFYPSDIAVEWESNGQPENNYKTTPPVLDSDGSFFLYSRLTVDKSRWQEGNVFSCSVMHEALHNHYTQKSLSLSLGGGGSGGGGSEVQLVESGGGFVQAGESLTLSCTSSTLTFTPYRMAWYRQAPGKQRDLVADISSGDGRTTNYADFAKGRFTISRDNIKNTVFLRMTNLKPEDTAVYYCNTFVSFVGIARSWGQGTQVTVSS
chain: ESKYGPPCPPCPAPEAAGGPSVFLFPPKPKDTLMISRTPEVTCVVVDVSQEDPEVQFNWYVDGVEVHNAKTKPREEQFNSTYRVVSVLTVLHQDWLNGKEYKCKVSNKGLPSSIEKTISKAKGQPREPQVCTLPPSQEEMTKNQVSLSCAVKGFYPSDIAVEWESNGQPENNYKTTPPVLDSDGSFFLVSRLTVDKSRWQEGNVFSCSVMHEALHNRFTQKSLSLSL
light: DIVMTQSPDSLAVSLGERATINCKSSQSLLNSRTRKNYLAWYQQKPGQPPKLLIYWASTRESGVPDRFSGSGSGTDFTLTISSLQAEDVAVYYCTQSFILRTFGQGTKVEIK
notes: chains put together from parts; IgG4, kappa; not shown: kappa light chain constant domain (CL)
In general, Kd refers to the equilibrium constant for the complex coming apart. Lower therefore signals higher affinity. A word on the koff: it is a measure of how fast the partners let go of each other. Low readings indicate a long-lived complex, high ones a short-lived complex. In general, kon refers to the rate constant with which the complex forms. High values mean fast association, low ones slow association. The term EC50 denotes the concentration needed to bring the measured effect to its halfway point. A higher EC50 goes with lower potency in that assay. In assay [1], B1 registered a Kd of 3.66 nM, a koff of 0.00101 s⁻¹ and a kon of 303000 M⁻¹ s⁻¹. Moreover, the EC50 in assay [2] is 1.04 µg/mL and 8.02 nM.

B2: 312 (TA7), configuration of FIG. 1X (bispecific antibody, IgG4)
heavy: EVQLVQSGAEVKKPGASVKVSCKASGFTFTSYYIHWVRQAPGQGLEWIGWIYPENDNTKYNEKFKDRVTITADTSTSTAYLELSSLRSEDTAVYYCARDGYSRYYFDYWGQGTLVTVSSASTKGPSVFPLAPCSRSTSESTAALGCLVKDYFPEPVTVSWNSGALTSGVHTFPAVLQSSGLYSLSSVVTVPSSSLGTKTYTCNVDHKPSNTKVDKRVESKYGPPCPPCPAPEAAGGPSVFLFPPKPKDTLMISRTPEVTCVVVDVSQEDPEVQFNWYVDGVEVHNAKTKPREEQFNSTYRVVSVLTVLHQDWLNGKEYKCKVSNKGLPSSIEKTISKAKGQPREPQVYTLPPCQEEMTKNQVSLWCLVKGFYPSDIAVEWESNGQPENNYKTTPPVLDSDGSFFLYSRLTVDKSRWQEGNVFSCSVMHEALHNHYTQKSLSLSLGGGGSGGGGSEVQLVESGGGFVQAGESLTLSCTSSTLTFTPYRMAWYRQAPGKQRDLVADISSGDGRTTNYADFAKGRFTISRDNIKNTVFLRMTNLKPEDTAVYYCNTFVSFVGIARSWGQGTQVTVSS
chain: ESKYGPPCPPCPAPEAAGGPSVFLFPPKPKDTLMISRTPEVTCVVVDVSQEDPEVQFNWYVDGVEVHNAKTKPREEQFNSTYRVVSVLTVLHQDWLNGKEYKCKVSNKGLPSSIEKTISKAKGQPREPQVCTLPPSQEEMTKNQVSLSCAVKGFYPSDIAVEWESNGQPENNYKTTPPVLDSDGSFFLVSRLTVDKSRWQEGNVFSCSVMHEALHNRFTQKSLSLSL
light: DIVMTQSPDSLAVSLGERATINCKSSQSLLNSRTRKNYLAWYQQKPGQSPKLLIYWTSTRKSGVPDRFSGSGSGTDFTLTISSLQAEDVAVYYCKQSFILRTFGQGTKVEIK
notes: as for B1
Turning to B2, in assay [1], the Kd was determined as 3.24 nM, the koff worked out at 0.000565 s⁻¹ and the kon was 157000 M⁻¹ s⁻¹. In assay [2], the EC50 was 0.146 µg/mL and 1.12 nM.

B3: CEA-Fab-Knob-+Hole (201) (bispecific antibody, human IgG4 S228P, kappa, F234A L235A)
heavy: EVKLLESGGGLVQPKGSLKLSCAASGFTFNTYAMNWVRQAPGKGLEWVARIRSKYNNYATYYADSVKDRFTISRDDSQSILYLQMNNLKTEDTAMYYCVRHGNFGNSYVSWFAYWGQGTLVTVSSASTKGPSVFPLAPCSRSTSESTAALGCLVKDYFPEPVTVSWNSGALTSGVHTFPAVLQSSGLYSLSSVVTVPSSSLGTKTYTCNVDHKPSNTKVDKRVESKYGPPCPPCPAPEAAGGPSVFLFPPKPKDTLMISRTPEVTCVVVDVSQEDPEVQFNWYVDGVEVHNAKTKPREEQFNSTYRVVSVLTVLHQDWLNGKEYKCKVSNKGLPSSIEKTISKAKGQPREPQVYTLPPCQEEMTKNQVSLWCLVKGFYPSDIAVEWESNGQPENNYKTTPPVLDSDGSFFLYSRLTVDKSRWQEGNVFSCSVMHEALHNHYTQKSLSLSL
chain: ESKYGPPCPPCPAPEAAGGPSVFLFPPKPKDTLMISRTPEVTCVVVDVSQEDPEVQFNWYVDGVEVHNAKTKPREEQFNSTYRVVSVLTVLHQDWLNGKEYKCKVSNKGLPSSIEKTISKAKGQPREPQVCTLPPSQEEMTKNQVSLSCAVKGFYPSDIAVEWESNGQPENNYKTTPPVLDSDGSFFLVSRLTVDKSRWQEGNVFSCSVMHEALHNRFTQKSLSLSL
light: QAVVTQESALTTSPGETVTLTCRSSTGAVTTSNYANWVQEKPDHLFTGLIGGTNKRAPGVPARFSGSLIGDKAALTITGAQTEDEAIYFCALWYSNLWVFGGGTKVEIKRTVAAPSVFIFPPSDEQLKSGTASVVCLLNNFYPREAKVQWKVDNALQSGNSQESVTEQDSKDSTYSLSSTLTLSKADYEKHKVYACEVTHQGLSSPVTKSFNRGECGGGGSGGGGSEVQLVESGGGFVQAGESLTLSCTSSTLTFTPYRMAWYRQAPGKQRDLVADISSGDGRTTNYADFAKGRFTISRDNIKNTVFLRMTNLKPEDTAVYYCNTFVSFVGIARSWGQGTQVTVSS
notes: VHH linked to the CL of the Fab; human IgG4 knob-into-hole Fc
With B3, in assay [1], the Kd turned out to be 2.59 nM, the koff was 0.00046 s⁻¹ and the kon came to 178000 M⁻¹ s⁻¹. Also, the EC50 in assay [2] is 0.312 µg/mL and 2.4 nM.

B4: Knob-CEA+Hole-Fab (112) (bispecific antibody, human IgG4 S228P, kappa, F234A L235A)
chain: ESKYGPPCPPCPAPEAAGGPSVFLFPPKPKDTLMISRTPEVTCVVVDVSQEDPEVQFNWYVDGVEVHNAKTKPREEQFNSTYRVVSVLTVLHQDWLNGKEYKCKVSNKGLPSSIEKTISKAKGQPREPQVYTLPPCQEEMTKNQVSLWCLVKGFYPSDIAVEWESNGQPENNYKTTPPVLDSDGSFFLYSRLTVDKSRWQEGNVFSCSVMHEALHNHYTQKSLSLSLGGGGSGGGGSEVQLVESGGGFVQAGESLTLSCTSSTLTFTPYRMAWYRQAPGKQRDLVADISSGDGRTTNYADFAKGRFTISRDNIKNTVFLRMTNLKPEDTAVYYCNTFVSFVGIARSWGQGTQVTVSS
heavy: ESKYGPPCPPCPAPEAAGGPSVFLFPPKPKDTLMISRTPEVTCVVVDVSQEDPEVQFNWYVDGVEVHNAKTKPREEQFNSTYRVVSVLTVLHQDWLNGKEYKCKVSNKGLPSSIEKTISKAKGQPREPQVCTLPPSQEEMTKNQVSLSCAVKGFYPSDIAVEWESNGQPENNYKTTPPVLDSDGSFFLVSRLTVDKSRWQEGNVFSCSVMHEALHNRFTQKSLSLSLGGGGSGGGGSEVKLLESGGGLVQPKGSLKLSCAASGFTFNTYAMNWVRQAPGKGLEWVARIRSKYNNYATYYADSVKDRFTISRDDSQSILYLQMNNLKTEDTAMYYCVRHGNFGNSYVSWFAYWGQGTLVTVSSASTKGPSVFPLAPCSRSTSESTAALGCLVKDYFPEPVTVSWNSGALTSGVHTFPAVLQSSGLYSLSSVVTVPSSSLGTKTYTCNVDHKPSNTKVDKRV
light: QAVVTQESALTTSPGETVTLTCRSSTGAVTTSNYANWVQEKPDHLFTGLIGGTNKRAPGVPARFSGSLIGDKAALTITGAQTEDEAIYFCALWYSNLWVFGGGTKVEIKRTVAAPSVFIFPPSDEQLKSGTASVVCLLNNFYPREAKVQWKVDNALQSGNSQESVTEQDSKDSTYSLSSTLTLSKADYEKHKVYACEVTHQGLSSPVTKSFNRGEC
notes: Anti-CD3 TA1 Fab + anti-CEA VHH C17 on human IgG4 knob-into-hole Fc
Consider B4, for which, in assay [1], binding was characterised by a dissociation constant (Kd) of 2.44 nM, the koff is 0.000614 s⁻¹ and the kon worked out at 252000 M⁻¹ s⁻¹. For the same molecule, the EC50 in assay [2] is 5.32 µg/mL and 40.9 nM.

B5: Fab-Knob+CEA-Hole (101) (bispecific antibody, human IgG4 S228P, kappa, F234A L235A)
heavy: EVKLLESGGGLVQPKGSLKLSCAASGFTFNTYAMNWVRQAPGKGLEWVARIRSKYNNYATYYADSVKDRFTISRDDSQSILYLQMNNLKTEDTAMYYCVRHGNFGNSYVSWFAYWGQGTLVTVSSASTKGPSVFPLAPCSRSTSESTAALGCLVKDYFPEPVTVSWNSGALTSGVHTFPAVLQSSGLYSLSSVVTVPSSSLGTKTYTCNVDHKPSNTKVDKRVESKYGPPCPPCPAPEAAGGPSVFLFPPKPKDTLMISRTPEVTCVVVDVSQEDPEVQFNWYVDGVEVHNAKTKPREEQFNSTYRVVSVLTVLHQDWLNGKEYKCKVSNKGLPSSIEKTISKAKGQPREPQVYTLPPCQEEMTKNQVSLWCLVKGFYPSDIAVEWESNGQPENNYKTTPPVLDSDGSFFLYSRLTVDKSRWQEGNVFSCSVMHEALHNHYTQKSLSLSL
chain: EVQLVESGGGFVQAGESLTLSCTSSTLTFTPYRMAWYRQAPGKQRDLVADISSGDGRTTNYADFAKGRFTISRDNIKNTVFLRMTNLKPEDTAVYYCNTFVSFVGIARSWGQGTQVTVSSESKYGPPCPPCPAPEAAGGPSVFLFPPKPKDTLMISRTPEVTCVVVDVSQEDPEVQFNWYVDGVEVHNAKTKPREEQFNSTYRVVSVLTVLHQDWLNGKEYKCKVSNKGLPSSIEKTISKAKGQPREPQVCTLPPSQEEMTKNQVSLSCAVKGFYPSDIAVEWESNGQPENNYKTTPPVLDSDGSFFLVSRLTVDKSRWQEGNVFSCSVMHEALHNRFTQKSLSLSL
light: QAVVTQESALTTSPGETVTLTCRSSTGAVTTSNYANWVQEKPDHLFTGLIGGTNKRAPGVPARFSGSLIGDKAALTITGAQTEDEAIYFCALWYSNLWVFGGGTKVEIKRTVAAPSVFIFPPSDEQLKSGTASVVCLLNNFYPREAKVQWKVDNALQSGNSQESVTEQDSKDSTYSLSSTLTLSKADYEKHKVYACEVTHQGLSSPVTKSFNRGEC
notes: Anti-CD3 TA1 Fab + anti-CEA VHH C17 on human IgG4 knob-into-hole Fc, kappa light chain
In assay [1], B5 registered a Kd of 0.979 nM, a koff of 0.0004 s⁻¹ and a kon of 409000 M⁻¹ s⁻¹. Moreover, the EC50 in assay [2] was 6.28 µg/mL and 48.3 nM.
